Results as given in patent publication US20230121197A1, “ANTIBODIES SPECIFICALLY BINDING THE CARBOXYMETHYLATED CATALYTIC SUBUNIT OF PROTEIN PHOSPHATASE 2A” (Medizinische Universität Wien, priority 2020, published 2023).
No end group written: not given here.

T1: PP6c C-terminal peptide L305, ac-IPPRTTTPYFL (non-methylated) (human)
T1 construct: also called PP6 L305
T1 peptide: Ac-IPPRTTTPYFL

T2: PP6c C-terminal peptide meL305, ac-IPPRTTTPYFL-CH3 (α-carboxymethylated) (human, SMILES …)
T2 construct: also called PP6 meLeu305
T2 peptide: Ac-IPPRTTTPYFL-OMe

B1: 7C10-C5: α-carboxymethylation specific mouse monoclonal IgG1 antibody from single clone hybridoma 7C10-C5 (DSM ACC3350) (antibody)
heavy: MYRMQLLSCIALSLALVTNSDVQLQESGPGLVKPSQSLSLTCSVTGYSITSGYYWNWIRQFPGNKLEWMGYISYDGSNNYNPSLKNRISITRDTSKNQFFLKLNSVTTEDTATYYCAGRFAYWGQGTLVTVSAAKTTAPSVYPLAPVCGDTTGSSVTLGCLVKGYFPEPVTLTWNSGSLSSGVHTFPAVLQSDLYTLSSSVTVTSSTWPSQSITCNVAHPASSTKVDKKIEPRGPTIKPCPPCKCPAPNLLGGPSVFIFPPKIKDVLMISLSPIVTCVVVDVSEDDPDVQISWFVNNVEVHTAQTQTHREDYNSTLRVVSALPIQHQDWMSGKEFKCKVNNKDLPAPIERTISKPKGSVRAPQVYVLPPPEEEMTKKQVTLTCMVTDFMPEDIYVEWTNNGKTELNYKNTEPVLDSDGSYFMYSKLRVEKKNWVERNSYSCSVVHEGLHNHHTTKSFSRTPGK
light: MDMRVPAQLLGLLLLWLSGARCDVLMTQTPLSLPVSLGDQASISCRSSQSIVHSNGNTYLEWYLQKPGQSPKLLIYKVSNRFSGVPDRFSGSGSGTDFTLKINRVEAEDLGVYYCFQGSHVPWTFGGGTKLEIKADAAPTVSIFPPSSEQLTSGGASVVCFLNNFYPKDINVKWKIDGSERQNGVLNSWTDQDSKDSTYSMSSTLTLTKDEYERHNSYTCEATHKTSTSPIVKSFNRNEC
modifications: Amino acid sequence of the recombinant 7C10-C5 heavy chain; Amino acid sequence of the recombinant 7C10-C5 light chain
B2: 7C10-C5 monoclonal antibody (antibody, V domains shown)
VH: DVQLQESGPGLVKPSQSLSLTCSVTGYSITSGYYWNWIRQFPGNKLEWMGYISYDGSNNYNPSLKNRISITRDTSKNQFFLKLNSVTTEDTATYYCAGRFAYWGQGTLVTVSA
VL: DVLMTQTPLSLPVSLGDQASISCRSSQSIVHSNGNTYLEWYLQKPGQSPKLLIYKVSNRFSGVPDRFSGSGSGTDFTLKINRVEAEDLGVYYCFQGSHVPWTFGGGTKLEIK
notes: Used as hybridoma culture supernatant (ELISA, Western blot, IHC) or at 50 µg/mL (SPR); also called 7C10 X63; clone 7C10-C5

Experiments:
PP2Ac = biological target: T3, PP2Ac (Homo sapiens, UniProt P67775); assay: Western blot of human cell lysates (HAP1, HEK293; NaOH treatment, Lcmt-1-KO); format: binding
T3 construct: the carboxy-terminal methyl group was chemically removed from cellular PP2Ac; endogenous in cells; host or cells: HAP1 wild type, HAP1 Lcmt-1-KO, HEK293Trex / HEK293T
T3 sequence (P67775 whole entry): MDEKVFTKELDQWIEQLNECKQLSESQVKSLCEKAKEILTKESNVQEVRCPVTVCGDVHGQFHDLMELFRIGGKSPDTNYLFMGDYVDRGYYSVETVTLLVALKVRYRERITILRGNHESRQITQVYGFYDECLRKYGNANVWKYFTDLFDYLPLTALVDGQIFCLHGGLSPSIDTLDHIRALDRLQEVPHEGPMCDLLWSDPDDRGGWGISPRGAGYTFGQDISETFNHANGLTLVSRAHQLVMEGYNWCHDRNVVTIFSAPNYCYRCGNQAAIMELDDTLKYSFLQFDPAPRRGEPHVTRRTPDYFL
Method: NIH3T3 mouse fibroblasts and human embryonic kidney cells (HEK293Trex) were grown in DMEM+10% FCS+2 mM L-glutamine (Sigma, G2150)+100 units/ml Penicillin/0.1 mg/ml Streptomycin at 37° C. in a 7.5% CO2 atmosphere. HAP1 wild type and HAP1 Lcmt-1-KO cells (Leucine carboxyl methyltransferase 1 deleted by CRISPR/Cas9; Horizon Discovery, #C631 and #HZGHC004373c001) were grown in Iscove's Modified Dulbecco's Medium (IMDM, Thermo Fischer Scientific, Life Technologies #12440053) supplemented with 10% (v/v) Fetal Calf Serum (FCS) (Sigma #F7524, lot 104M3333), GlutaMAX™ (Thermo Fischer Scientific, Life Technologies #35050-38, lot 1895829), and Penicillin-Streptomycin solution (Sigma, #P4333, lot 125M4781V) in a 5% CO2 atmosphere. Of note, HAP1 is a near-haploid human cell line that was derived from the chronic myelogenous leukemia (CML) cell line KBM-7 (Carette (2011), Nature 477(7364):340-3). For cell lysis, exponentially growing cells were washed once with ice-cold PBS, once with ice-cold IP-Wash buffer (20 mmol/l Tris pH 8.0, 135 mmol/l NaCl, 10% glycerol) and lysed on the petri-dish in ice-cold IP-Lyse buffer (18 mmol/l Tris pH 8.0, 122 mmol/l NaCl, 9% glycerol, 1% w/v NP-40) for 20 min at 4° C. rocking. Lysed cells were transferred to Eppendorf 1.5 ml tubes and centrifuged for 15 min at 14,000 rpm at 4° C. in a Beckman & Coulter Microfuge 18 centrifuge. The protein concentration was determined with the Protein Assay Dye Reagent (Biorad, 500-0006) and measurement of absorbance at 595 nm in a Hitachi U-2000 spectrophotometer. […]
To test these antibodies in the western blot analysis with methylated and non-methylated full-length PP2Ac the methyl group was chemically removed from cellular PP2Ac by treating lysates of the human cell line, HAP1, with NaOH, as described in Example 2. […] In agreement with the results of the NaOH experiments, […] of PP2Ac were detected in HAP1 cells that lack the PP2A methyltransferase LCMT-1 indicating the preference of these antibodies for non-methylated PP2Ac (FIG. 22). […]

[1] = biological target: T1, PP6c C-terminal peptide L305, …; assay: ELISA, values normalized to meL309, Neg = TBS only, N=7
Excerpt: (§1) FIG. 9: Monoclonal antibody 7C10-C5 detects α-carboxymethylated PP2Ac C-terminal peptides with >10-fold higher signal intensity than the α-carboxymethylated PP4c and PP6c C-terminal peptides in ELISA. Nunc Medisorp 96-well ELISA flat-bottom plates were coated with PP2Ac peptides L309 (ac-[…]) (SEQ ID NO:18), meL309 (ac-[…]-CH3) (SEQ ID NO:18), PP4c peptides L307 (ac-[…]) (SEQ ID NO:20), meL307 (ac-[…]-CH₃) (SEQ ID NO:20), PP6c peptides L305 (ac-[…]) (SEQ ID NO:22) or meL305 (ac-[…]-CH₃) (SEQ ID NO:22) at 2 μg/ml in TBS or TBS only (Neg) at 4° C. over-night. After washing once with TBS, the wells were incubated with 2% BSA in TBS for 1 h at RT. After washing once with TBS, the wells were incubated with single clone hybridoma cell culture supernatant, clone 7C10-C5 1:50 for 1 h at RT. After washing twice with TBS, wells were incubated with anti-mouse and anti rabbit HRP-coupled secondary antibody for 1 h at RT, followed by washing 3× in PBS. Bound antibodies were detected by colorimetric reaction with 3,3′,5,5′-Tetramethylbenzidine as substrate, and absorbance was measured at 450 nm. Values were normalized to meL309 which was set to 1. Average and standard deviation of N=7 experiments are shown. […] Statistical significance was assessed using ANOVA followed by Tukey's HSD as a post-hoc test. […]

[2] = biological target: T2, PP6c C-terminal peptide meL305, …; assay: as above
Excerpt: as §1

Row | Molecule | detection of PP2Ac in HAP1 cells that lack LCMT-1 (Lcmt-1-KO) (PP2Ac) | detection of PP2Ac in untreated versus NaOH treated cell lysates (PP2Ac; HAP1, HEK293) | binding result [1] | binding result [2]
1 | B1 | no carboxymethylated PP2Ac specific signals were detected | only detected methylated PP2Ac in the untreated cell lysates but not in the NaOH treated lysates | – | –
2 | B2 | – | – | no binding | no binding
